The values that follow are results of earlier work, collected in article PMC4411291.

The target of the data set is Calmodulin (UniProt P0DP23).

On to “STIM2 C-terminal site (from UniProt Q9P246)”, for which the dissociation constant Kd was 1000 nM.

The term Kd denotes a measure of binding affinity in units of concentration.
